Experiments:
Assay in all cases: cell_activity
[1] = test system: TAL4-Tet1-CD (KLF4 site 4); details: CpG demethylation 13 bp downstream, no other CpGs significant; K562 cells
[2] = test system: TAL2-Tet1-CD (KLF4 site 2); details: CpG demethylation 17 bp downstream (28.2% at 27 bp, none at 1 and 3 bp); K562 cells
[3] = test system: TAL1-Tet1-CD (TAL effector repeat array to KLF4 site 1, Gly3Ser linker, Tet1 catalytic domain); details: CpG demethylation 15 bp downstream of site (32.5% at 9 bp); K562 cells, bisulfite sequencing
[4] = test system: TAL3-Tet1-CD (KLF4 site 3); details: CpG demethylation at 22, 36, 116 and 143 bp downstream; K562 cells
[5] = test system: KLF4 six-finger ZF-Tet1 fusion (engineered); details: CpG demethylation 6 bp downstream (25% at 24 bp); K562 cells; one of two KLF4 ZF-Tet1 proteins

**Q.** With “GGGGGCGGGCGGAGCCTTGGGGTCACCAAGAGCCACTGAACGAGGGTAAGGAGCGGCCACCGCGCGGACTCCGCAACCTTCCCGGGATAGCTTCCGTGTCCTTGGCTCAGCTGTGTATGCCCGTGGTGCGAGCACTGCGGAGCCGCCTGGGGCGCAAGCCGGGTCTTCACCAGTCCCCGGGCGCGCTGTCGGTAGGGCGGGCGCTCTCGGGCCACCGGGCGGGAGGTGGCCGCGTCCCCAGACACTGGCTGGGCCAGAGTGAGTTTAGCGCGTAGGCGGC (double strand) [KLF4 intron 1-2 TAL site 4]” as the substance, how does the activity [1] read?
**A.** 37%

**Q.** Which activity [2] does the source give for “GGGGGCGGGCGGAGCCTTGGGGTCACCAAGAGCCACTGAACGAGGGTAAGGAGCGGCCACCGCGCGGACTCCGCAACCTTCCCGGGATAGCTTCCGTGTCCTTGGCTCAGCTGTGTATGCCCGTGGTGCGAGCACTGCGGAGCCGCCTGGGGCGCAAGCCGGGTCTTCACCAGTCCCCGGGCGCGCTGTCGGTAGGGCGGGCGCTCTCGGGCCACCGGGCGGGAGGTGGCCGCGTCCCCAGACACTGGCTGGGCCAGAGTGAGTTTAGCGCGTAGGCGGC (double strand) [KLF4 intron 1-2 TAL site 2]” here?
**A.** 36.5%

**Q.** With “GGGGGCGGGCGGAGCCTTGGGGTCACCAAGAGCCACTGAACGAGGGTAAGGAGCGGCCACCGCGCGGACTCCGCAACCTTCCCGGGATAGCTTCCGTGTCCTTGGCTCAGCTGTGTATGCCCGTGGTGCGAGCACTGCGGAGCCGCCTGGGGCGCAAGCCGGGTCTTCACCAGTCCCCGGGCGCGCTGTCGGTAGGGCGGGCGCTCTCGGGCCACCGGGCGGGAGGTGGCCGCGTCCCCAGACACTGGCTGGGCCAGAGTGAGTTTAGCGCGTAGGCGGC (double strand) [KLF4 intron 1-2 TAL site 1]” as the substance, how does the activity [3] read?
**A.** 45.4%

**Q.** How did the activity [4] turn out when “GGGGGCGGGCGGAGCCTTGGGGTCACCAAGAGCCACTGAACGAGGGTAAGGAGCGGCCACCGCGCGGACTCCGCAACCTTCCCGGGATAGCTTCCGTGTCCTTGGCTCAGCTGTGTATGCCCGTGGTGCGAGCACTGCGGAGCCGCCTGGGGCGCAAGCCGGGTCTTCACCAGTCCCCGGGCGCGCTGTCGGTAGGGCGGGCGCTCTCGGGCCACCGGGCGGGAGGTGGCCGCGTCCCCAGACACTGGCTGGGCCAGAGTGAGTTTAGCGCGTAGGCGGC (double strand) [KLF4 intron 1-2 TAL site 3]” was run?
**A.** > 25%

**Q.** Which activity [5] does the source give for KLF4 locus ZF site here?
**A.** 68%
